± gives the standard deviation.
Assay: protein stability index of a GFP-peptide fusion (GPS, HEK-293T) (PSI 1-6); higher = more stable
[1] = treatment: DMSO, c terminus: a fixed tail appended
[2] = treatment: MLN4924 1 uM, 8 h, c terminus: a fixed tail appended
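Note: 24-mer peptide tiles fused after GFP, lentivirally expressed, FACS-sorted into six equal bins by GFP/DsRed ratio, decoded by Illumina sequencing, PSI is the read-weighted mean bin number.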

Row | Sequence | protein stability index [1] | protein stability index [2] | protein stability index (treatment: DMSO, c terminus: native) | protein stability index (treatment: MLN4924 1 uM, 8 h, c terminus: native)
1 | AAWKGRVLLPETQKRQQLSEDTLT [C22orf31] | 3.83 ± 0.31 | 3.84 ± 0.38 | – | –
2 | KAQQEFAAGVFSNPAVRTAAANAA [SCAMP3] | 4.13 ± 0.11 | 4.11 ± 0.24 | – | –
3 | SSRVPVGGGPEATLSISDVRTLSE [ZBTB22] | 4.49 ± 0.11 | 4.57 ± 0.38 | – | –
4 | AVWGQCQVRIRYLGERRAEPHSLL [SPSB2] | 2.26 ± 0.23 | 2.19 ± 0.28 | – | –
5 | QGDKAIREQGPREQEPELSFLKQK [PBXIP1] | 5.44 ± 0.33 | 5.42 ± 0.16 | – | –
6 | EVGSMKIQSGAWVCYQYPGYRGYQ [CRYBA1] | 2.08 ± 0.24 | 2.32 ± 0.11 | – | –
7 | QQLYRHGKAYRFLFGFSAVSIMYL [JAGN1] | 2.82 ± 0.2 | 3.28 ± 0.93 | – | –
8 | VKVLAGQEYAAKIINTKKLSARDH [CAMK2A] | 3.15 ± 0.34 | 3.33 ± 0.11 | – | –
9 | LLSCLSKSNNRLKSLSIQYLELDR [FBXO39] | 2.54 ± 0.37 | 2.01 ± 0.33 | – | –
10 | LLMIPWGSAAKLVCYFTNWAQYRQ [CHIT1] | 3.04 ± 0.69 | 2.86 ± 0.68 | – | –
11 | EQQRKLETYLQNHFAEEERSKYDY [TENT5C] | 4.35 ± 0.16 | 4.47 ± 0.099 | – | –
12 | ELLTDKSCQSFISWTGDGWEFKLS [ETS1] | 2.24 ± 0.28 | 2.55 ± 0.37 | – | –
13 | WNFEITNQSFNIVDIKPANMEELT [PPP2R2B] | 3.4 ± 0.55 | 3.13 ± 0.65 | – | –
14 | KNRPAMNYDKLSRSIRQYYKKGII [SPDEF] | 2.46 ± 0.3 | 2.42 ± 0.48 | – | –
15 | QIEERHQEKKRKFLESTDSFNNEL [SMARCE1] | 4.82 ± 0.25 | 5.08 ± 0.37 | – | –
16 | AMVLELLGPSLEDLFDLCDRTFTL [CSNK1G1] | 2.52 ± 1.4 | 1.53 ± 0.14 | – | –
17 | VNIMRTYTYEKLLWTTSRVLKVLS [CTNNB1] | 2.18 ± 0.14 | 2.41 ± 0.67 | – | –
18 | VCVFLSHGEGNHIYAYDAKIEIQT [CASP6] | 3.11 ± 0.26 | 2.75 ± 0.64 | – | –
19 | EDLKGHVAETSGETIQGFWLLTKI [TPRG1] | 2.37 ± 0.59 | 2.07 ± 0.3 | – | –
20 | EVENQFILRLPLEHACTVRNLARS [TAF7L] | 2.66 ± 0.12 | 2.51 ± 0.24 | – | –
21 | KTVCGYYTSAGTYGLDSVKKKCLE [GMCL1] | 3.16 ± 0.3 | 2.97 ± 0.49 | – | –
22 | RTLRNFINDEMQAKGIPQRAPPKR [PCMTD1] | 4.06 ± 0.16 | 3.98 ± 0.36 | – | –
23 | SMIQEQFKKGKNPTGLLALQQIAD [ADD1] | 3.08 ± 0.18 | 3.17 ± 0.32 | – | –

Row | Sequence | protein stability index [1] | protein stability index [2] | protein stability index (treatment: DMSO, c terminus: native) | protein stability index (treatment: MLN4924 1 uM, 8 h, c terminus: native)
24 | KYRNPSLKLMVNVCGHTLCESCVD [MNAT1] | 2.53 ± 0.34 | 2.83 ± 0.31 | – | –
25 | RCGYRLVRRQRSADEQLHCAGKAK [ESR2] | 3.69 ± 0.36 | 3.91 ± 0.26 | – | –
26 | YILLVGYPPFWDEDQHKLYQQIKA [CAMK2B] | 2.49 ± 0.57 | 2.82 ± 0.56 | – | –
27 | IPVLYCMVFIAGILLNGVSGWIFF [P2RY14] | 3.28 ± 0.64 | 2.9 ± 0.37 | – | –
28 | PPLWAASAAGHLDVVRSLLRRGAS [FEM1A] | 3.55 ± 0.28 | 3.43 ± 0.28 | – | –
29 | PVVGSTRRLYEKKIFEYETQRRRL [EMD] | 3.16 ± 0.25 | 3.18 ± 0.06 | – | –
30 | GRESYIPGICVARVYHGWLFEGLG [SLA] | – | 1.8 ± 0.88 | – | –
31 | HRNLSQLPNFAFSVPLAYFLLSQQ [TCF25] | 2.26 ± 0.56 | 2.65 ± 0.26 | – | –
32 | DLHRQFPFHEMFVSRGGHGQQDLF [TBC1D10A] | 2.73 ± 0.17 | 2.8 ± 0.34 | – | –
33 | VLGADGVCMTFMKQIAGGDVTAKN [INTS3] | 3.51 ± 0.26 | 3.6 ± 0.42 | – | –
34 | AEDKAAVERSKMIDRNLREDGEKA [GNAI1] | 5.691 ± 0.042 | 5.34 ± 0.13 | – | –
35 | PRSCSSGPAGPYLLSKKGALQSRA [PLEKHN1] | 3.96 ± 0.52 | 4.29 ± 0.39 | – | –
36 | DSGVGASLTRSNRHRLRWHSFQSS [DLC1] | 3.03 ± 0.13 | 3.04 ± 0.21 | – | –
37 | KGKLMVCYETLPRGQCLLYNWEEE [SPAG8] | 2.55 ± 0.32 | 2.7 ± 0.34 | – | –
38 | TEPEQRELKTKLTKLEAEIVTLRH [TPD52L3] | 4.23 ± 0.15 | 4.35 ± 0.26 | – | –
39 | NDIFQAANPYWTSRGSSVSMSGGR [TRIM63] | 3.76 ± 0.34 | 3.63 ± 0.062 | – | –
40 | SHFVFVIEVKTKGGSKYLIYRRYR [NCF4] | 2.81 ± 0.56 | 2.48 ± 0.33 | – | –
41 | QSIIAIIRAMGRLKIDFGDSARAD [GNAI1] | 2.44 ± 0.53 | 2.29 ± 0.93 | – | –
42 | KTCNPPDAGPMVVHCSAGVGRTGC [PTPRD] | 3.5 ± 0.32 | 3.5 ± 0.34 | – | –
43 | MASGPGSQEREGLLIVKLEEDCAW [ZNF263] | 2.44 ± 0.36 | 2.28 ± 0.47 | – | –
44 | EILLDFVYTETVHVTVENVQELLP [KLHL12] | 2.31 ± 0.59 | 2.4 ± 1.3 | – | –
45 | PGAHGRFMPQGAGGHTREARIQTL [RSAD1] | 3.63 ± 0.35 | 3.67 ± 0.29 | – | –
46 | APSLEAPKPSGLEPGPAAYGLKPL [KCTD13] | 4.45 ± 0.25 | 4.58 ± 0.1 | – | –

Row | Sequence | protein stability index [1] | protein stability index [2] | protein stability index (treatment: DMSO, c terminus: native) | protein stability index (treatment: MLN4924 1 uM, 8 h, c terminus: native)
47 | SALPTGSPKRGTAPGDLSATEPAT [FBF1] | 5.32 ± 0.36 | 5.32 ± 0.086 | – | –
48 | HSKQYRCLSFQPECSMKLTPLVLE [VDR] | 2.5 ± 0.29 | 2.42 ± 0.14 | – | –
49 | GYNWCHDRNVVTIFSAPNYCYRCG [PPP2CA] | 2.4 ± 0.41 | 2.27 ± 0.46 | – | –
50 | KELCAMSEEQFRQRSPLGGDVLHA [SPDEF] | 3.88 ± 0.27 | 3.87 ± 0.13 | – | –
51 | EEDCAWSQELPPPDPGPSPEASHL [ZNF263] | 5.44 ± 0.25 | 5.58 ± 0.25 | – | –
52 | CPHCGDRTFYDPEPILCPCFMPN [PRAME] | – | – | 3.98 ± 0.25 | 3.99 ± 0.48
53 | LPSLGLPQYRSYFMECLVDARMLD [PPFIA4] | 2.47 ± 0.46 | 2.13 ± 0.38 | – | –
54 | SSFIKTEPSSPASLTDSVNHHSPG [ESRRG] | 4.79 ± 0.17 | 4.9 ± 0.18 | – | –
55 | VVTTEHILVSVAAGVSLSTLEELL [PYCR3] | 3.04 ± 0.72 | 2.78 ± 0.66 | – | –
56 | NAVKYVSNIKFCSFHPLQYIGFYG [PDS5B] | 2.89 ± 0.25 | 2.35 ± 0.54 | – | –
57 | DPTNWLRCYYYEDTISTIKSVAWE [NCF4] | 2.12 ± 0.47 | 2.47 ± 0.13 | – | –
58 | GYSTHADFVLEMNTAKSTSRVTAF [NLN] | 2.29 ± 0.2 | 2.51 ± 0.12 | – | –
59 | GGDGSGCSKQSGSFRKFRYGYNNV [ADAMTS4] | 3.59 ± 0.3 | 3.389 ± 0.008 | – | –
60 | TDIELEIYGMEGIPEKDMDERRRL [ZNF207] | 4.77 ± 0.097 | 4.86 ± 0.22 | – | –
61 | VAITILQDDHDHKVQELMSTHELE [MTUS2] | 3.3 ± 0.3 | 3.43 ± 0.23 | – | –
62 | ETIEGAPPLWAASAAGHLKVVQSL [FEM1C] | 3.11 ± 0.2 | 3.04 ± 0.46 | – | –
63 | SDPCGQLRPTLLLTSLHHFMHSRN [PNLIPRP1] | 2.3 ± 0.35 | 2.6 ± 0.24 | – | –
64 | EEHTTILRPSYTGLSSSSARFLSR [CDC14A] | 3.57 ± 0.12 | 3.7 ± 0.19 | – | –
65 | RTVKLIRYVSNWDFFIVGCEVIFC [PKD2L1] | 2.79 ± 0.56 | 2.58 ± 0.47 | – | –
66 | LETQAQVCQALAQVDGGANFSVDR [CPOX] | 4.85 ± 0.18 | 4.96 ± 0.14 | – | –
67 | ASLGDVQSGATISMPCSTDKENGE [SASS6] | 5.69 ± 0.17 | 5.62 ± 0.23 | – | –
68 | QAQAVQTEQAVALLRDRTGQQSDT [SCARA5] | 5.35 ± 0.34 | 5.19 ± 0.23 | – | –
69 | EELEDSKALLYLPIAPEVEDPEEN [RBBP5] | 5.5 ± 0.6 | 5.24 ± 0.42 | – | –

Row | Sequence | protein stability index [1] | protein stability index [2] | protein stability index (treatment: DMSO, c terminus: native) | protein stability index (treatment: MLN4924 1 uM, 8 h, c terminus: native)
70 | STKAIPEKYGAVREVILKELAEAT [ZBED1] | 3.88 ± 0.32 | 4.08 ± 0.35 | – | –
71 | PGSCGAGAPSPGSSDVSTAGTGAS [ELF3] | 4.98 ± 0.29 | 5.08 ± 0.17 | – | –
72 | NLLLQPTTNPHTSASHRPCVNGDV [SMG5] | 3.48 ± 0.23 | 3.54 ± 0.43 | – | –
73 | LIIFDKQSSQRMRQNLKLLVEETS [CEP70] | 2.1 ± 0.25 | 2.04 ± 0.35 | – | –
74 | EALAKQVASEMRFVQDLVRALEQE [DAPK3] | 2.95 ± 0.25 | 3.09 ± 0.54 | – | –
75 | IGCVFAELLTGQPLWPGKSDVDQL [CDKL4] | 2.09 ± 0.32 | 2.15 ± 0.57 | – | –
76 | APTPPSLSQRVMCNDLFKVNPFQL [TIAF1] | 2.11 ± 0.25 | 2.25 ± 0.28 | – | –
77 | LNSMPKRLCLVCGDIASGYHYGVA [ESRRG] | 2.48 ± 0.22 | 2.23 ± 0.39 | – | –
78 | TPIPWLSSGEPVDYNVDIGIPLDG [MYOZ1] | 3.98 ± 0.19 | 4.07 ± 0.2 | – | –
79 | EIIPINVNNNYEHRHTSHLGHAVL [SPRY1] | 2.34 ± 0.15 | 2.43 ± 0.3 | – | –
80 | FSAEFLKVFIPSLFLSHVLALGLG [BNIP3L] | 3.57 ± 0.21 | 2.9 ± 0.93 | – | –
81 | SPSPPVEVKIEEPVSMEMDNHMSD [INTS3] | 5.59 ± 0.19 | 5.52 ± 0.17 | – | –
82 | RNLGSINTELQDVQRIMVANIEEV [SEC22B] | 4.1 ± 0.15 | 4.05 ± 0.044 | – | –
83 | DLIDVDLIRGSTFAKAKPEIPWTS [PHTF1] | 2.25 ± 0.17 | 2.46 ± 0.22 | – | –
84 | TWRDPQDEVPGSQGSQASQAPPVP [NR2F2] | 5.18 ± 0.19 | 5.16 ± 0.23 | – | –
85 | TLEFENVQVLTMGNDTSPSEGTNL [HNF4A] | 4.69 ± 0.18 | 4.52 ± 0.39 | – | –
86 | RPKDTVMCYRVRWEEAAPGRAVEH [MYORG] | 2.85 ± 0.39 | 2.91 ± 0.35 | – | –
87 | GDQDPLSKIPFKILSGHEHAVSTC [WDR88] | 3.31 ± 0.23 | 3.78 ± 0.16 | – | –
88 | VLSHIMFDGPEAWGVCEPQREEVE [ZER1] | 3.63 ± 0.17 | 3.49 ± 0.28 | – | –
89 | TINPLWHIRHLGWNPDARYSEHFL [GLT8D2] | 2.39 ± 0.22 | 2.32 ± 0.24 | – | –

Reference: the supplement of paper PMC10567573
